Experiment [1] addresses DAXX, Q9UER7-1.
The next experiment addresses asf1b_human ASF1B (UniProt Q9NVP2).
The next experiment concerns the target caf1a_human CHAF1A (UniProt Q13111).
The target in experiment [2] is DAXX, Q9UER7-1. The source holds these as a separate data set.

Here are results for three substances from IntAct's records for PubMed 23075851.

Sequence of DAXX, Q9UER7-1 (Q9UER7 whole entry): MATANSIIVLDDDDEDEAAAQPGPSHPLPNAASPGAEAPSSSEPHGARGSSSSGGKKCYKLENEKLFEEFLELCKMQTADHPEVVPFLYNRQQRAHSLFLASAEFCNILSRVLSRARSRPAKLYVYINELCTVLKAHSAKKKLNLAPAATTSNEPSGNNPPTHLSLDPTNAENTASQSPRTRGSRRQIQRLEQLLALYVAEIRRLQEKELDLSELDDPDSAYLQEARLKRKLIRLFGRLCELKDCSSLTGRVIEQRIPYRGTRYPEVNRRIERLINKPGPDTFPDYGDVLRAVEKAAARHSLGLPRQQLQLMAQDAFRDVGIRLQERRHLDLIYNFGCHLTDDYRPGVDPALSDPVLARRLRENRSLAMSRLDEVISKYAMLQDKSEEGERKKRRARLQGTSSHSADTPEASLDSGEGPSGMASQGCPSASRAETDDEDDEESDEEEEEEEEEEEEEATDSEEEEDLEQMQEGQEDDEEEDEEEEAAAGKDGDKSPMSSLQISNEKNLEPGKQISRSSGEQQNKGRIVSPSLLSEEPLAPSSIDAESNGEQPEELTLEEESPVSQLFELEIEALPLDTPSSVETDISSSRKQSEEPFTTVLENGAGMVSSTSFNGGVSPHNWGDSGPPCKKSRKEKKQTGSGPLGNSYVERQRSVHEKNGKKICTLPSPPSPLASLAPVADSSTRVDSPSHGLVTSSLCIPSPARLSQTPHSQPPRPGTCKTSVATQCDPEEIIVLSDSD
Sequence of caf1a_human CHAF1A (Q13111 whole entry): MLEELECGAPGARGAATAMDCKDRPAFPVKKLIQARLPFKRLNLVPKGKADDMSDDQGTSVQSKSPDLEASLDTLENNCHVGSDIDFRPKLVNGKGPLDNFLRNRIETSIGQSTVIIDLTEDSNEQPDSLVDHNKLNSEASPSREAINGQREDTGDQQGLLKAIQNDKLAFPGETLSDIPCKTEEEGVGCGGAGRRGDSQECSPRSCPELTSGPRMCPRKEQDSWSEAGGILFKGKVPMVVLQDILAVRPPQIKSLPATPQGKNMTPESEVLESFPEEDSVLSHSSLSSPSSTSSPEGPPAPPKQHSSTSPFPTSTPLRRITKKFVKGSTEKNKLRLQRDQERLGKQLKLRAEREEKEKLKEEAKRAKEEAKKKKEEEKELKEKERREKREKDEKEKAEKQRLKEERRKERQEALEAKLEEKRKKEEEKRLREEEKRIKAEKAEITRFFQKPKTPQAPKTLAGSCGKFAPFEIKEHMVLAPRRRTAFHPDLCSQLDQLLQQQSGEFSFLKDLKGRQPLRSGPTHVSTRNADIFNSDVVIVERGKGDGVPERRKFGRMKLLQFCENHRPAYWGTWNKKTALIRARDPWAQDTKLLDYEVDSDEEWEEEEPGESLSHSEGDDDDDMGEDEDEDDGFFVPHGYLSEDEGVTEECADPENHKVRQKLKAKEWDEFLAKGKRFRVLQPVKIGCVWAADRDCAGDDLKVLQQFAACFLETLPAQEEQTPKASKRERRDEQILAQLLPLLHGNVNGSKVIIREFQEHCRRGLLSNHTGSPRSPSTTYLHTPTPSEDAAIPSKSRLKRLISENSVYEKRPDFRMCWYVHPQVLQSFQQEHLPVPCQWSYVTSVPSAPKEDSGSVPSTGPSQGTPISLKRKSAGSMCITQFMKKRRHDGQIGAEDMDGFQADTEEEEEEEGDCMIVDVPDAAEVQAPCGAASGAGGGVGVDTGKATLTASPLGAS
Sequence of asf1b_human ASF1B (Q9NVP2 whole entry): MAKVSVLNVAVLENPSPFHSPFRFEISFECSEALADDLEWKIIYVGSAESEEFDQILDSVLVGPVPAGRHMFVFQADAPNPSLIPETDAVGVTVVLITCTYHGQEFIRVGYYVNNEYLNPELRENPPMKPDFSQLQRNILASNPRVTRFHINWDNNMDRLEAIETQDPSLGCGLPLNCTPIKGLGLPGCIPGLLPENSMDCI

Turning to “Histone H3.2 (Homo sapiens) (from UniProt Q71DI3) M91G”, the “effect of a mutation on the interaction” value with DAXX, Q9UER7-1 [1] is listed as “increasing interaction strength”.
Turning to “Histone H3.3 (Homo sapiens) (from UniProt P84243) C111E”, the “effect of a mutation on the interaction” value in the experiment with asf1b_human ASF1B is given as “disrupting interaction strength”.
On to “Histone H3.3 (Homo sapiens) (from UniProt P84243) G91M”, for which the “effect of a mutation on the interaction” value in the experiment with caf1a_human CHAF1A is given as “increasing interaction strength”; with DAXX, Q9UER7-1 [2], “decreasing interaction strength”.
